Measurements as given in PMC10786891, “Massively parallel profiling of RNA-targeting CRISPR-Cas13d”.

T1: EsCas13d, nuclease-dead (Eubacterium siraeum, UniProt B0MS50, R295A;H300A;R849A;H854A)
T1 sequence: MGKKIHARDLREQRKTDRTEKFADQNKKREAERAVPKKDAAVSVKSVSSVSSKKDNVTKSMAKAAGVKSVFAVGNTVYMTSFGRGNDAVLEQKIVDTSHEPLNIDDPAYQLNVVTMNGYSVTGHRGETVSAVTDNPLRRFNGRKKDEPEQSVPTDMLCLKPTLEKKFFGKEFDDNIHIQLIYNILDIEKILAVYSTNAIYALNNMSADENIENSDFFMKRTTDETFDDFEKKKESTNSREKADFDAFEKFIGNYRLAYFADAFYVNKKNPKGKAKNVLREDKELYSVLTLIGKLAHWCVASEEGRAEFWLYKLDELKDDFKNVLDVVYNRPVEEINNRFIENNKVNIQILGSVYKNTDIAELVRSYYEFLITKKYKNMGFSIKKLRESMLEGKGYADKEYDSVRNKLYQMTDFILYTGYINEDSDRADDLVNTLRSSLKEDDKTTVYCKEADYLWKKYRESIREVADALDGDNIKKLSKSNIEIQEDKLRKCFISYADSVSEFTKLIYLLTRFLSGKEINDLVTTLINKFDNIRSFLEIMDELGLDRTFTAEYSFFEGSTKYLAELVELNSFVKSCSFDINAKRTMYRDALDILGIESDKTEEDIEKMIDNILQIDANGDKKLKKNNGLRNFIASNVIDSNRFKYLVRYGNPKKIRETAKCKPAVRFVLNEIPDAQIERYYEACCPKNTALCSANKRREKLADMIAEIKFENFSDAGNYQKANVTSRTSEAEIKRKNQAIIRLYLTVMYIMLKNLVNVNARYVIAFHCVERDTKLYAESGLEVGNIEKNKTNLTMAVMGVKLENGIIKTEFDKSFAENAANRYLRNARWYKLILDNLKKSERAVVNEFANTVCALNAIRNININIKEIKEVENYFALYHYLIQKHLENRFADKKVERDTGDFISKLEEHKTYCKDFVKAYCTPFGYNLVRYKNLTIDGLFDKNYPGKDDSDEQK


Molecular target: T1, EsCas13d, nuclease-dead
Experiment: crRNA (strand 1, pre-loaded); Mg2+; 40 mM Tris-HCl pH 7.5, 150 mM NaCl, 6 mM MgCl2, 1 mM DTT, 0.1% Tween-20, 0.2 mg/ml BSA; 25 C; 10 min per concentration, then washed
Conditions: tags: His6-TwinStrep-SUMO cleaved; N-terminal SNAP kept (SNAP-Surface 488); label: 3' end held by stalled T7 RNA polymerase

| Binder | Kd [nM] |
| --- | --- |
| target 1 C6G,C22G (mixed) RNA 1: CACCCGUGCAAAAAUGCAGGGGUCUAAAACUGAGCGGAUAACCUCUCUAUGG RNA 2: GGGAAUGGAUCCACAUCUACGAAUUCGUAGCAUAGAGAGGUUAUCGGCUCACCGAGAUCGGAAGAGCACACGU | 35 ± 5 |
| target 1 del8,del20 (mixed) RNA 1: CACCCGUGCAAAAAUGCAGGGGUCUAAAACUGAGCGGAUAACCUCUCUAUGG RNA 2: GGGAAUGGAUCCACAUCUACGAAUUCGUACCUAGAGAGGUUACCGCUCACCGAGAUCGGAAGAGCACACGU | 74 ± 9 |
| target 1 C2A,C4A (mixed) RNA 1: CACCCGUGCAAAAAUGCAGGGGUCUAAAACUGAGCGGAUAACCUCUCUAUGG RNA 2: GGGAAUGGAUCCACAUCUACGAAUUCGUACCAUAGAGAGGUUAUCCGAUAACCGAGAUCGGAAGAGCACACGU | 10.3 ± 0.5 |
| target 1 U3C,A14C (mixed) RNA 1: CACCCGUGCAAAAAUGCAGGGGUCUAAAACUGAGCGGAUAACCUCUCUAUGG RNA 2: GGGAAUGGAUCCACAUCUACGAAUUCGUACCAUAGAGCGGUUAUCCGCCCACCGAGAUCGGAAGAGCACACGU | 84 ± 18 |
| target 1 insA 3' of 7,insA 3' of 2 (mixed) RNA 1: CACCCGUGCAAAAAUGCAGGGGUCUAAAACUGAGCGGAUAACCUCUCUAUGG RNA 2: GGGAAUGGAUCCACAUCUACGAAUUCGUACCAUAGAGAGGUUAUCACGCUCAACCGAGAUCGGAAGAGCACACGU | 7.2 ± 0.8 |
| target 1 insA 3' of 22,insU 3' of 2 (mixed) RNA 1: CACCCGUGCAAAAAUGCAGGGGUCUAAAACUGAGCGGAUAACCUCUCUAUGG RNA 2: GGGAAUGGAUCCACAUCUACGAAUUCGUACACAUAGAGAGGUUAUCCGCUCUACCGAGAUCGGAAGAGCACACGU | 14.6 ± 1 |
| target 1 insU 3' of 20,insC 3' of 12 (mixed) RNA 1: CACCCGUGCAAAAAUGCAGGGGUCUAAAACUGAGCGGAUAACCUCUCUAUGG RNA 2: GGGAAUGGAUCCACAUCUACGAAUUCGUACCAUUAGAGAGGCUUAUCCGCUCACCGAGAUCGGAAGAGCACACGU | 37 ± 14 |
| target 1 insC 3' of 8,insU 3' of 2 (mixed) RNA 1: CACCCGUGCAAAAAUGCAGGGGUCUAAAACUGAGCGGAUAACCUCUCUAUGG RNA 2: GGGAAUGGAUCCACAUCUACGAAUUCGUACCAUAGAGAGGUUAUCCCGCUCUACCGAGAUCGGAAGAGCACACGU | 21.3 ± 2.8 |
| target 1 A1C,G12A (mixed) RNA 1: CACCCGUGCAAAAAUGCAGGGGUCUAAAACUGAGCGGAUAACCUCUCUAUGG RNA 2: GGGAAUGGAUCCACAUCUACGAAUUCGUACCAUAGAGAGAUUAUCCGCUCCCCGAGAUCGGAAGAGCACACGU | 6.6 ± 0.5 |
| target 1 insG 3' of 6,insC 3' of 1 (mixed) RNA 1: CACCCGUGCAAAAAUGCAGGGGUCUAAAACUGAGCGGAUAACCUCUCUAUGG RNA 2: GGGAAUGGAUCCACAUCUACGAAUUCGUACCAUAGAGAGGUUAUCCGGCUCACCCGAGAUCGGAAGAGCACACGU | 13.1 ± 0.9 |
| target 1 insU 3' of 13,insA 3' of 6 (mixed) RNA 1: CACCCGUGCAAAAAUGCAGGGGUCUAAAACUGAGCGGAUAACCUCUCUAUGG RNA 2: GGGAAUGGAUCCACAUCUACGAAUUCGUACCAUAGAGAGUGUUAUCCAGCUCACCGAGAUCGGAAGAGCACACGU | 33.9 ± 3.2 |
| target 1 insA 3' of 21,insC 3' of 5 (mixed) RNA 1: CACCCGUGCAAAAAUGCAGGGGUCUAAAACUGAGCGGAUAACCUCUCUAUGG RNA 2: GGGAAUGGAUCCACAUCUACGAAUUCGUACCAAUAGAGAGGUUAUCCGCCUCACCGAGAUCGGAAGAGCACACGU | 45 ± 7 |
| target 1 insG 3' of 11,insU 3' of 9 (mixed) RNA 1: CACCCGUGCAAAAAUGCAGGGGUCUAAAACUGAGCGGAUAACCUCUCUAUGG RNA 2: GGGAAUGGAUCCACAUCUACGAAUUCGUACCAUAGAGAGGUGUAUUCCGCUCACCGAGAUCGGAAGAGCACACGU | 28 ± 5 |
| target 1 del20 (mixed) RNA 1: CACCCGUGCAAAAAUGCAGGGGUCUAAAACUGAGCGGAUAACCUCUCUAUGG RNA 2: GGGAAUGGAUCCACAUCUACGAAUUCGUACCUAGAGAGGUUAUCCGCUCACCGAGAUCGGAAGAGCACACGU | 31 ± 1.6 |
| target 1 insA 3' of 17,insU 3' of 2 (mixed) RNA 1: CACCCGUGCAAAAAUGCAGGGGUCUAAAACUGAGCGGAUAACCUCUCUAUGG RNA 2: GGGAAUGGAUCCACAUCUACGAAUUCGUACCAUAGAAGAGGUUAUCCGCUCUACCGAGAUCGGAAGAGCACACGU | 15.4 ± 1.6 |
| target 1 insG 3' of 11,insC 3' of 10 (mixed) RNA 1: CACCCGUGCAAAAAUGCAGGGGUCUAAAACUGAGCGGAUAACCUCUCUAUGG RNA 2: GGGAAUGGAUCCACAUCUACGAAUUCGUACCAUAGAGAGGUGUCAUCCGCUCACCGAGAUCGGAAGAGCACACGU | 21.3 ± 0.9 |
| target 1 insA 3' of 15,insU 3' of 4 (mixed) RNA 1: CACCCGUGCAAAAAUGCAGGGGUCUAAAACUGAGCGGAUAACCUCUCUAUGG RNA 2: GGGAAUGGAUCCACAUCUACGAAUUCGUACCAUAGAGAAGGUUAUCCGCUUCACCGAGAUCGGAAGAGCACACGU | 9.5 ± 1.2 |
| target 1 insG 3' of 18,insU 3' of 4 (mixed) RNA 1: CACCCGUGCAAAAAUGCAGGGGUCUAAAACUGAGCGGAUAACCUCUCUAUGG RNA 2: GGGAAUGGAUCCACAUCUACGAAUUCGUACCAUAGGAGAGGUUAUCCGCUUCACCGAGAUCGGAAGAGCACACGU | 63 ± 4 |
| target 1 G12U,G15A (mixed) RNA 1: CACCCGUGCAAAAAUGCAGGGGUCUAAAACUGAGCGGAUAACCUCUCUAUGG RNA 2: GGGAAUGGAUCCACAUCUACGAAUUCGUACCAUAGAAAGUUUAUCCGCUCACCGAGAUCGGAAGAGCACACGU | 11.3 ± 1.3 |
| target 1 C6G,G17C (mixed) RNA 1: CACCCGUGCAAAAAUGCAGGGGUCUAAAACUGAGCGGAUAACCUCUCUAUGG RNA 2: GGGAAUGGAUCCACAUCUACGAAUUCGUACCAUACAGAGGUUAUCGGCUCACCGAGAUCGGAAGAGCACACGU | ~41 |
| target 1 insA 3' of 10,insG 3' of 7 (mixed) RNA 1: CACCCGUGCAAAAAUGCAGGGGUCUAAAACUGAGCGGAUAACCUCUCUAUGG RNA 2: GGGAAUGGAUCCACAUCUACGAAUUCGUACCAUAGAGAGGUUAAUCGCGCUCACCGAGAUCGGAAGAGCACACGU | 12.4 ± 0.7 |
| target 1 insG 3' of 18,insA 3' of 10 (mixed) RNA 1: CACCCGUGCAAAAAUGCAGGGGUCUAAAACUGAGCGGAUAACCUCUCUAUGG RNA 2: GGGAAUGGAUCCACAUCUACGAAUUCGUACCAUAGGAGAGGUUAAUCCGCUCACCGAGAUCGGAAGAGCACACGU | 64 ± 6 |
| target 1 C4G,A18U (mixed) RNA 1: CACCCGUGCAAAAAUGCAGGGGUCUAAAACUGAGCGGAUAACCUCUCUAUGG RNA 2: GGGAAUGGAUCCACAUCUACGAAUUCGUACCAUUGAGAGGUUAUCCGGUCACCGAGAUCGGAAGAGCACACGU | 22.7 ± 2.4 |
| target 1 complement block 3-14 (mixed) RNA 1: CACCCGUGCAAAAAUGCAGGGGUCUAAAACUGAGCGGAUAACCUCUCUAUGG RNA 2: GGGAAUGGAUCCACAUCUACGAAUUCGUACCAUAGAGUCCAAUAGGCGACACCGAGAUCGGAAGAGCACACGU | ~60 |
| target 1 insU 3' of 12,insC 3' of 5 (mixed) RNA 1: CACCCGUGCAAAAAUGCAGGGGUCUAAAACUGAGCGGAUAACCUCUCUAUGG RNA 2: GGGAAUGGAUCCACAUCUACGAAUUCGUACCAUAGAGAGGUUUAUCCGCCUCACCGAGAUCGGAAGAGCACACGU | 9.8 ± 1.2 |
| target 1 insG 3' of 21,insU 3' of 7 (mixed) RNA 1: CACCCGUGCAAAAAUGCAGGGGUCUAAAACUGAGCGGAUAACCUCUCUAUGG RNA 2: GGGAAUGGAUCCACAUCUACGAAUUCGUACCGAUAGAGAGGUUAUCUCGCUCACCGAGAUCGGAAGAGCACACGU | 73 ± 9 |
| target 1 insG 3' of 6,insA 3' of 2 (mixed) RNA 1: CACCCGUGCAAAAAUGCAGGGGUCUAAAACUGAGCGGAUAACCUCUCUAUGG RNA 2: GGGAAUGGAUCCACAUCUACGAAUUCGUACCAUAGAGAGGUUAUCCGGCUCAACCGAGAUCGGAAGAGCACACGU | 12.6 ± 0.7 |
| target 1 A1U,G13U (mixed) RNA 1: CACCCGUGCAAAAAUGCAGGGGUCUAAAACUGAGCGGAUAACCUCUCUAUGG RNA 2: GGGAAUGGAUCCACAUCUACGAAUUCGUACCAUAGAGAUGUUAUCCGCUCUCCGAGAUCGGAAGAGCACACGU | 49 ± 10 |
